Results from article PMC2723993, “Crystal Structure of Escherichia coli Polynucleotide Phosphorylase Core Bound to RNase E, RNA and Manganese: Implications for Catalytic Mechanism and RNA Degradosome Assembly” (Journal of Molecular Biology, 2009).

B1: RNase E recognition micro-domain (residues 1021-1061) (peptide, UniProt P21513 1021-1061, looked up)
peptide: EAPRHSDWQRPTFAFEGKGAAGGHTATHHASAAPARPQPVE
notes: also called RNase E micro-domain; source: synthetic peptide (Clonestar Biotech Ltd), desalted on PD10
B2: Escherichia coli polynucleotide phosphorylase core (PNPase ΔKHΔS1, lacking the C-terminal S1 and KH domains) (domain or fragment, E. coli)
chain: MLNPIVRKFQYGQHTVTLETGMMARQATAAVMVSMDDTAVFVTVVGQKKAKPGQDFFPLTVNYQERTYAAGRIPGSFFRREGRPSEGETLIARLIDRPIRPLFPEGFVNEVQVIATVVSVNPQVNPDIVAMIGASAALSLSGIPFNGPIGAARVGYINDQYVLNPTQDELKESKLDLVVAGTEAAVLMVESEAQLLSEDQMLGAVVFGHEQQQVVIQNINELVKEAGKPRWDWQPEPVNEALNARVAALAEARLSDAYRITDKQERYAQVDVIKSETIATLLAEDETLDENELGEILHAIEKNVVRSRVLAGEPRIDGREKDMIRGLDVRTGVLPRTHGSALFTRGETQALVTATLGTARDAQVLDELMGERTDTFLFHYNFPPYSVGETGMVGSPKRREIGHGRLAKRGVLAVMPDMDKFPYTVRVVSEITESNGSSSMASVCGASLALMDAGVPIKAAVAGIAMGLVKEGDNYVVLSDILGDEDHLGDMDFKVAGSRDGISALQMDIKIEGITKEIMQVALNQAKGARLHILGVMEQAINAPRGDIS
notes: Expression vector from George Mackie; No tag is mentioned; also called PNPase core; PNPase ΔKΔH1; source: E. coli BL21 (DE3), auto-induction, purified (ammonium sulphate, Q-Sepharose, mono-Q)

Experiments:
[1] = molecular target: B2; test: ITC; MicroCal VP-ITC, 25 °C; 200 uM PNPase core injected into 10 uM RNase E micro-domain in the cell; 10 mM Tris pH 7.5, 150 mM NaCl, 1 mM MgCl2; single binding-site model; conditions: both partners purified
[2] = molecular target: B1; test: as above; conditions: both partners purified
[3] = molecular target: the molecule itself; test: crystal structure; co-crystals of 165 uM PNPase core mixed with 246 uM RNase E micro-domain (1021-1061), with or without O2'-methyl RNA, Mn2+ or tungstate; four crystal forms; hanging drop, 20 °C

Ka [1] | Kd [1] | dH [2] | stoichiometry N [2] | Binder | stoichiometry N [3]
956000 M⁻¹ | ~900 nM | – | – | B1 | –
– | – | -21.5 ± 0.52 kcal/mol | 1.02 ± 0.02 | B2 | 3
